Where two headings read alike, the source gives them in different places.
T1: cynomolgus SIRPα extracellular domain + His-tag (XP_015313155) (cynomolgus monkey)
T1 construct: also called CySIRPα XP_015313155; cynoSIRPα
T1 chain: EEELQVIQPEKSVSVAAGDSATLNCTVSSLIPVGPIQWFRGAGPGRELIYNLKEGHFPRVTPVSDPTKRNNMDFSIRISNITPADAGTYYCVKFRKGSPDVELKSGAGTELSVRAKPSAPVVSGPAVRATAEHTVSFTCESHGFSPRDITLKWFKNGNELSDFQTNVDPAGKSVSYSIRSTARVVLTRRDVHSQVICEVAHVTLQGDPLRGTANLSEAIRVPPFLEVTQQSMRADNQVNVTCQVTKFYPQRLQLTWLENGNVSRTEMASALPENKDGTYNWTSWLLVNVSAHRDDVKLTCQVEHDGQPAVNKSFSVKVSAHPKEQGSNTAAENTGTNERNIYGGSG

T2: cynomolgus SIRPγ extracellular domain + His-tag (XP_005568591) (cynomolgus monkey, UniProt Q9P1W8 29-359 (human entry))
T2 construct: also called Cyno SIRPγ; cynoSIRPγ
T2 chain: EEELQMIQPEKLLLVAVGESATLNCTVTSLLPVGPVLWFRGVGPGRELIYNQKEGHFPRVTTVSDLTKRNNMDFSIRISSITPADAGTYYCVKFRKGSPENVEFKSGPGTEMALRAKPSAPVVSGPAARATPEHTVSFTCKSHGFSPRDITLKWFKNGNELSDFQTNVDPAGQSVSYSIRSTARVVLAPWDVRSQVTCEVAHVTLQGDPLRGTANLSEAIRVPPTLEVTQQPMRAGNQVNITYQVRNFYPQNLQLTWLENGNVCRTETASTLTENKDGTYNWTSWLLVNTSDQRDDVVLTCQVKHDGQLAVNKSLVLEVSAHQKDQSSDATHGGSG

T3: cynomolgus SIRPβ1v3 extracellular domain + His-tag (XP_005568593) (cynomolgus monkey)
T3 construct: also called Cyno SIRPβ1v3; cynoSIRPβ1v3
T3 chain: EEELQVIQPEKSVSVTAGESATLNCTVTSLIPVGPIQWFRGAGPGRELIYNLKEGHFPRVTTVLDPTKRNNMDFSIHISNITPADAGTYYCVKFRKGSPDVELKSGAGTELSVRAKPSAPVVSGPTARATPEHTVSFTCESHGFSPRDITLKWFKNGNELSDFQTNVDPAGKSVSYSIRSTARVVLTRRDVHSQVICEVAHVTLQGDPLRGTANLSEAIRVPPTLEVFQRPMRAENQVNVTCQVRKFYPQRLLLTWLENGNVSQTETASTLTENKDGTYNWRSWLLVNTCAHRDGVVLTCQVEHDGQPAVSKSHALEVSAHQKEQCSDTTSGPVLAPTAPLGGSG

T4: cynomolgus SIRPα extracellular domain + His-tag (EGM_02252) (cynomolgus monkey)
T4 construct: also called CySIRPα EGM_02252; cynoSIRPα
T4 chain: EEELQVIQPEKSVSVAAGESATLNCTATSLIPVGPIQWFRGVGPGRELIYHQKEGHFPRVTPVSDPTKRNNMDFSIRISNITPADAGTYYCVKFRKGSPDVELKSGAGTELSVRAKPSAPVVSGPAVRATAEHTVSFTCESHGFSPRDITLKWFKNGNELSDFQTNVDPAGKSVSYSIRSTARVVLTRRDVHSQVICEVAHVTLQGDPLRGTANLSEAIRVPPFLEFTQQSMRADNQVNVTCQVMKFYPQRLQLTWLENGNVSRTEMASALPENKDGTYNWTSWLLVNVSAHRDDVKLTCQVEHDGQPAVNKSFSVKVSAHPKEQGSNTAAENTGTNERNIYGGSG

T5: cynomolgus SIRPα extracellular domain + His-tag (NP_001271679) (cynomolgus monkey)
T5 construct: also called CySIRPα NP_001271679; cynoSIRPα
T5 chain: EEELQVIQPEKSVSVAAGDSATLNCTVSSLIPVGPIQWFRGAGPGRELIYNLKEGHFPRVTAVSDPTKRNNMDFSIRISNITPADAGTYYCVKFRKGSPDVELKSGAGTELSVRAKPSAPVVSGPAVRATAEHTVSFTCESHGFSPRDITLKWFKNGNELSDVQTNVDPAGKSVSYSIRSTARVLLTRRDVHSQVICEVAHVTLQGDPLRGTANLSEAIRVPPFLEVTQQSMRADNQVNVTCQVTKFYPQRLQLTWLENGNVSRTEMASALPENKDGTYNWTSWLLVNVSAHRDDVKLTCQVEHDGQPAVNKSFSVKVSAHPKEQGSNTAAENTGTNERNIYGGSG

T6: mouse SIRPα extracellular domain + His-tag (NP_031573) (mouse, UniProt P97797 32-373)
T6 chain: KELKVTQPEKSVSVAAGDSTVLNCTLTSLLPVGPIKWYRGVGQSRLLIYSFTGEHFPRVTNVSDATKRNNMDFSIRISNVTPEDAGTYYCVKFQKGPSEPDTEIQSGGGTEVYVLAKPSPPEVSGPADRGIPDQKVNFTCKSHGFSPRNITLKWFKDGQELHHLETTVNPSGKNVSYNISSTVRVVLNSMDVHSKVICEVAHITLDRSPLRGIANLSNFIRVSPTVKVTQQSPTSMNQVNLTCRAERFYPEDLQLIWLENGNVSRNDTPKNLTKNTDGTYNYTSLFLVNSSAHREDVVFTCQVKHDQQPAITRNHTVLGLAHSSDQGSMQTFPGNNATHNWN


Tests used:
[1] = target: T7, full-length human SIRPβL (NP_001129316.1) on cells (human, UniProt Q5TFQ8 30-398); test: flow cytometry, U937 SIRPα KO cells
T7 construct: on U937 SIRPα KO cells and Expi-CHO cells; also called βL WT; SIRPβ1v3
Method: Antibody binding to cells expressing full-length human SIRPβ1 (NP_006056.2) and SIRPβL (NP_001129316.1) is evaluated by flow cytometry. SIRPβ1- or SIRPβL-expressing U937^{SIRPα KO} cells are blocked with donkey IgG and incubated on ice with increasing concentrations of antibodies for 60 minutes, washed and stained with AF647-conjugated donkey F(ab′)₂ anti-human IgG secondary reagent. Cells are washed, fixed, and analyzed by flow cytometry. Median fluorescent intensity is determined and used as a measure of antibody binding.

[2] = target: T8, full-length human SIRPγ (NP_061026.2) on cells (human, UniProt Q9P1W8 29-387); test: flow cytometry, primary human CD3+ T cells
T8 construct: on CHO and Expi-CHO cells; endogenous on primary human CD3+ T cells; also called γ WT
Method: Antibody binding to primary human T cells expressing endogenous SIRPγ is evaluated by flow cytometry. Human peripheral blood mononuclear cells (PBMCs) are blocked with donkey IgG and incubated on ice with increasing concentrations of antibody for 60 minutes, washed and stained with AF647-conjugated donkey F(ab′)₂ anti-human IgG secondary reagent. […] Cells are washed, fixed, and analyzed by flow cytometry. Median fluorescent intensity of CD3+ gated population is determined and used as a measure of antibody binding.

[3] = target: T1, cynomolgus SIRPα extracellular domain + …; test: SPR, Ab captured, ECD-His analyte
Method: (§1) The binding affinity of anti-SIRPα antibodies to the various SIRPα analytes is determined by surface plasmon resonance (SPR) using a ProteOn XPR36 (Bio-Rad). The running buffer for this experiment and all dilutions (except where stated) are done in 1×HBS-EP+. […] The sensorchip is deactivated with 1M ethanolamine HCl for 420 sec at a flowrate of 10 μl/min.
(§2) The analyte is injected over the captured antibody for 300 sec at a flowrate of 30 μl/min. The dissociation is done for 600 sec. Two-fold serial dilutions of each SIRP protein (Extracellular Domain+His-Tag) are injected as analyte with the highest concentrations indicated in table 36 below.

[4] = target: T2, cynomolgus SIRPγ extracellular domain + …; test: SPR, Ab captured, ECD-His analyte
Method: as §1, §2

[5] = target: T3, cynomolgus SIRPβ1v3 extracellular …; test: SPR, Ab captured, ECD-His analyte
Method: as §1, §2

[6] = target: T4, cynomolgus SIRPα extracellular domain + …; test: SPR, Ab captured, ECD-His analyte
Method: as §1, §2

[7] = target: T9, human SIRPβ1 extracellular domain + His-tag (NP_006056.2) (human, UniProt O00241 30-371); test: SPR, Ab captured, ECD-His analyte
T9 construct: also called hSIRPβ1; HuSIRPβ1
Method: as §1, §2

[8] = target: T10, human SIRPβL/SIRPβ1v3 extracellular domain + His-tag (NP_001129316.1) (human, UniProt Q5TFQ8 30-371); test: SPR, Ab captured, ECD-His analyte
T10 construct: also called hSIRPβ1v3; HuSIRPβ1v3
Method: as §1, §2

[9] = target: T11, human SIRPγ extracellular domain + His-tag (NP_061026.2) (human, UniProt Q9P1W8 29-360); test: SPR, Ab captured, ECD-His analyte
T11 construct: also called hSIRPγ; HuSIRPγ
Method: as §1, §2

[10] = target: full-length human SIRPβ1 D→H on Expi-CHO cells (human, UniProt O00241 30-398); test: flow cytometry, Expi-CHO cells
Method: These cells are blocked with donkey IgG and incubated on ice with increasing concentrations of antibodies for 60 minutes, washed and stained with AF647-conjugated donkey F(ab′)₂ anti-human IgG antibodies. Stained cells are washed, fixed, and analyzed by flow cytometry. Median fluorescent intensity is determined and used as a measure of antibody binding.

[11] = target: T12, human SIRPαV1 extracellular domain + His-tag (NP_542970.1) (human, UniProt P78324 31-373); test: SPR, Ab captured, ECD-His analyte
T12 construct: also called hSIRPαV1; HuSIRPαV1
Method: as §1, §2

[12] = target: T9, human SIRPβ1 extracellular domain + …; test: SPR, Ab captured, ECD-His analyte; remark: listed apart in the source
Method: as §1, §2

[13] = target: T13, human SIRPαV2 extracellular domain + His-tag (CAA71403.1) (human, UniProt P78324 31-373); test: SPR, Ab captured, ECD-His analyte
T13 construct: also called hSIRPαV2; HuSIRPαV2
Method: as §1, §2

[14] = target: T5, cynomolgus SIRPα extracellular domain + …; test: SPR, Ab captured, ECD-His analyte
Method: as §1, §2

[15] = target: T6, mouse SIRPα extracellular domain + …; test: SPR, Ab captured, ECD-His analyte
Method: as §1, §2

[16] = target: T11, human SIRPγ extracellular domain + …; test: SPR, Ab captured, ECD-His analyte; remark: listed apart in the source
Method: as §1, §2

T12 sequence (P78324 other isoform, or with tags, fused parts or gaps): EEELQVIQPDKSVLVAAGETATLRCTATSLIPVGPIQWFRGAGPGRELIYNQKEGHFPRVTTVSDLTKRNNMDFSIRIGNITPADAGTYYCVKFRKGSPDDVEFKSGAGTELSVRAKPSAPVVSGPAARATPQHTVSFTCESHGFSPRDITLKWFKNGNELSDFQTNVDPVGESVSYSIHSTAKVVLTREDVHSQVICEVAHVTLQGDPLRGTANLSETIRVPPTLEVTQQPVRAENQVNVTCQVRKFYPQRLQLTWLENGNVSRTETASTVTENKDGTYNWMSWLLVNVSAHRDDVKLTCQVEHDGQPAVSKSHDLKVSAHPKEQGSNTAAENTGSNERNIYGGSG
T13 sequence (P78324 other isoform, or with tags, fused parts or gaps): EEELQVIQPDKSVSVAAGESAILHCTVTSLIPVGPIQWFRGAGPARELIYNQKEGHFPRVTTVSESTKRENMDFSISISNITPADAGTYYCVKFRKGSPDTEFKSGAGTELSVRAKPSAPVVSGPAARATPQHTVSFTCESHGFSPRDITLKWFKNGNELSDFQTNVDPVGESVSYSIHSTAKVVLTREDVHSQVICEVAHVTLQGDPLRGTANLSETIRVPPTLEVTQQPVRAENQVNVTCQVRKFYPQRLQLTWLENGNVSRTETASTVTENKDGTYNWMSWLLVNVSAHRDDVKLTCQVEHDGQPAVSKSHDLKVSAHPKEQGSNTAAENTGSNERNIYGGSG
T9 sequence (O00241 other isoform, or with tags, fused parts or gaps): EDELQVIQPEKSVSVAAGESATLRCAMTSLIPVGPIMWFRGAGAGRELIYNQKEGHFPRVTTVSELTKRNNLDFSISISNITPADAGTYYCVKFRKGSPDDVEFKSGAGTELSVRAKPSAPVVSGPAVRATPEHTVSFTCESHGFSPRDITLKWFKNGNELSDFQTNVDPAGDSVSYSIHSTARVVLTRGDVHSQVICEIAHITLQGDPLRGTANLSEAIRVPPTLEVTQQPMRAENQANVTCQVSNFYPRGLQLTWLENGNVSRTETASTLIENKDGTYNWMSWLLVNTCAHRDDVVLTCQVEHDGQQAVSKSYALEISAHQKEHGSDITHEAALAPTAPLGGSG
full-length human SIRPβ1 D→H on Expi-CHO cells, sequence (O00241 30-398 D130H): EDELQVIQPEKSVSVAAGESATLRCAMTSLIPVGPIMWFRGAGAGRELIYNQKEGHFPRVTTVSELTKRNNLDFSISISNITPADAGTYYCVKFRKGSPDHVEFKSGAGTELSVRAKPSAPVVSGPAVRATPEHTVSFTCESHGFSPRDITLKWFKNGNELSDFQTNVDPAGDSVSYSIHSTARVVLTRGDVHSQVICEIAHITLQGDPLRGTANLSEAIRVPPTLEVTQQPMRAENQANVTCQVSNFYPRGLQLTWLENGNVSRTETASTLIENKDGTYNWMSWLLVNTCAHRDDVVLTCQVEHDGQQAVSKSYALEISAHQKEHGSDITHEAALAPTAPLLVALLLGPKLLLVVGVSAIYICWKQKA
T7 sequence (Q5TFQ8 30-398): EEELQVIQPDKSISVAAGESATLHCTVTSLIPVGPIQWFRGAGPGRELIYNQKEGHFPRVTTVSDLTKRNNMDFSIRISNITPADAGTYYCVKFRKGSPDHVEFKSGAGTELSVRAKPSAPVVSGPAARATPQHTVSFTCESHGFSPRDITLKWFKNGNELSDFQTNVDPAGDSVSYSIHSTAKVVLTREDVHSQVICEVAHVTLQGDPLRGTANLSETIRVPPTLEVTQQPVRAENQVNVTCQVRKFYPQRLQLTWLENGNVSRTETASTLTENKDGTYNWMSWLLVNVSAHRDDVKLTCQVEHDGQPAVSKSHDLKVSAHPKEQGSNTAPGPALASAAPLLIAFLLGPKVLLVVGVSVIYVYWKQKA
T8 sequence (Q9P1W8 29-387): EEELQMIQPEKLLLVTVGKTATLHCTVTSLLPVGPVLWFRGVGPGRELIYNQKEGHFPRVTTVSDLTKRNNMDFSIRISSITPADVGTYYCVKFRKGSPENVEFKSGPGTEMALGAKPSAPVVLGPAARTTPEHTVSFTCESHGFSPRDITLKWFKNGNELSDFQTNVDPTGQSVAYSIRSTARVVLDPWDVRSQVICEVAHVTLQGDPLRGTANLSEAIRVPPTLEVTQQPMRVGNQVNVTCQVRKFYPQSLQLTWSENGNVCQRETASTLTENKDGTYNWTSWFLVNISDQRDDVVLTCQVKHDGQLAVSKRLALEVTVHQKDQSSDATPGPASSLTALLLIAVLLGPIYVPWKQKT
T11 sequence (Q9P1W8 29-360): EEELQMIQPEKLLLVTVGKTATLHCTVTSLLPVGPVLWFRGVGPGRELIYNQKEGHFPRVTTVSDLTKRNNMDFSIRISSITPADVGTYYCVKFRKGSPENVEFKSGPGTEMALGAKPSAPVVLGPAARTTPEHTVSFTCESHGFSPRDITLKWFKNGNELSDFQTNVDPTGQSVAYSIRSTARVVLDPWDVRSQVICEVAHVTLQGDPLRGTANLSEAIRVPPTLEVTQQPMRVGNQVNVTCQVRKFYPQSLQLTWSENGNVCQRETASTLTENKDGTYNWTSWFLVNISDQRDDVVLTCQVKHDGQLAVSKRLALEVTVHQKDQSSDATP
T10 sequence (Q5TFQ8 other isoform, or with tags, fused parts or gaps): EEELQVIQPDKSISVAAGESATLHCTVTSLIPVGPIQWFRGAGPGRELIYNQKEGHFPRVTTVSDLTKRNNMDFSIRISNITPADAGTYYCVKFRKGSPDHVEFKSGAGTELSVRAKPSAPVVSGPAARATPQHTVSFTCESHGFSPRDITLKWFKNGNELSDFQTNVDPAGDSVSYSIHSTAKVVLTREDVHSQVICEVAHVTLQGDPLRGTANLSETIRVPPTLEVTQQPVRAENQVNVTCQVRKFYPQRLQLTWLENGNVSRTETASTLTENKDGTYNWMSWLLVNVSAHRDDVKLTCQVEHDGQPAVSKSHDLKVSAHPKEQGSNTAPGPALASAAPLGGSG

Row | Binder | binding result [1] | binding result [2] | binding result [10] | Kd [11] [nM] | Kd [12] [nM] | Kd [13] [nM] | binding result [15] | binding result [14] | other results
1 | Antibody A4 (antibody, human IgG1, kappa, L234A L235A, V domains shown) VH: EVQLVESGGGLVQPGGSLRLSCAASGFTLSSYDMHWVRQAPGKGLEWVSAIGTAGDTYYTGSVKGRFTISRENAKNSLYLQMNSLRAADTAVYYCVRGGVWDDAFDIWGQGTMVTVSS VL: DIQMTQSPSSLSASVGDRVTITCRASQGINNYAAWFQQKPGKAPKSLIYTASSLHSGVPSKFSGSGSGTDFTLTISSLQPEDFATYYCQQYVSYPYTFGQGTKLEIKR | no binding | no binding | no binding | – | – | – | – | – | Kd [3]: 374 nM; binding result [4]: no binding (tested: 1000 nM); Kd [5]: 460 nM; Kd [6]: 508 nM; Kd [7]: 67.2 nM; binding result [8]: no binding (tested: 100 nM); binding result [9]: no binding (tested: 1000 nM)
2 | Antibody C (antibody, human IgG1, kappa, L234A L235A, V domains shown) VH: EVQLVESGGGLVQPGGSLRLSCAASGFTFSSYDMHWVRQATGKGLEWVSVIGIAGDTYYPGSVKGRFTISRENAKNSLYLQMNSLRVGDTAVYYCARGGSWDDAFDIWGQGTMVTVSS VL: DIQMTQSPSSLSASIGDKVTITCRASQDINNYLAWFQQKPGKAPKSLIYTASSLQSGVPSKFSGSGSGTDFTLTISSLQPEDFATYYCQQYVSYPYTFGQGTKLEIKR | – | – | no binding | 0.627 | 2.14 | 0.0969 | no binding | – | Kd [14]: 14.3 nM
3 | Antibody D (antibody, human IgG1, kappa, L234A L235A, V domains shown) VH: EVQLVESGGGLVQPGGSLRLSCAASGFTFSSFDMHWVRQPTGKGLEWVSTIGIAGDTYFPGSVKGRFTISRENAKNSLYLQMNSLRAGDTAVYYCARGGNWDDALDIWGQGTMVTVSS VL: DIQMTQSPSSLSASVGDRVTITCRASQDINNYLAWFQQKPGKAPKSLIYTASSLQSGVPSKFSGSGSGTDFTLTISSLQPEDFATYYCQQYNTYPYTFGQGTKLEIKR | – | – | no binding | 4.04 | 16.5 | 4.05 | no binding | no binding (tested: 1000 nM) | –
4 | Antibody A11 (antibody, human IgG4 S228P, kappa) heavy: not shown light: DIQMTQSPSSLSASVGDRVTITCRASQDINNYLAWFQQKPGKAPKSLIYTASSLHSGVPSKFSGSGSGTDFTLTISSLQPEDFATYYCQQYVSYPYTFGQGTKLEIKRTVAAPSVFIFPPSDEQLKSGTASVVCLLNNFYPREAKVQWKVDNALQSGNSQESVTEQDSKDSTYSLSSTLTLSKADYEKHKVYACEVTHQGLSSPVTKSFNRGEC | no binding | no binding | – | – | – | – | – | – | –
5 | Antibody B (antibody, human IgG1, kappa, L234A L235A, V domains shown) VH: QVQLVQSGAEVKKPGASVKVSCKASGYTFTGNYMHWVRQAPGQGLEWMGWINPNSGGTNYAQKFQGRVTMTRDTSISTAYMELSRLRSDDTAVYYCVSGSGWYENYYYYGMDVWGQGTTVTVSS VL: DIQMTQSPSSVSASVGDRVTITCRASQGISSWLAWYQQKPGKAPKLLIYAESSLQSGVPSRFSGSGSGTDFTLTISSLQPEDFATYYCQQANSFPLTFGGGTKVEIKR | – | – | – | 17.4 | – | 71.5 | no binding | no binding (tested: 1000 nM) | binding result [16]: no binding (tested: 1000 nM)
